The values below are quoted from earlier work in patent US11845786B2, “Peptides inhibiting KLK1, KLK4, or KLK4 and KLK8” (Daiichi Sankyo Company, Limited, priority 2017, dated 2023).

The target in series [1] is T1, KLK12 (Homo sapiens, UniProt Q9UKR0).
T1 sequence (Q9UKR0 18-248): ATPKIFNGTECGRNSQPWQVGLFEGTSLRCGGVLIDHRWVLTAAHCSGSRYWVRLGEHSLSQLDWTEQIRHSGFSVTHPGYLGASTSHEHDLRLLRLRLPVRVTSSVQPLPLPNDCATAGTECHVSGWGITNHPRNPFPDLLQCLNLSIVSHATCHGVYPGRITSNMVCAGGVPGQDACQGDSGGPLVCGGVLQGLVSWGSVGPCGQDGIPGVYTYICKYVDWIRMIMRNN
The note with it: Non Patent Literature 5.

The target in series [2] is KLK4 (Homo sapiens, UniProt Q9Y5K2). As to conditions: Non Patent Literature 5.
Sequence of KLK4 (Q9Y5K2 31-254): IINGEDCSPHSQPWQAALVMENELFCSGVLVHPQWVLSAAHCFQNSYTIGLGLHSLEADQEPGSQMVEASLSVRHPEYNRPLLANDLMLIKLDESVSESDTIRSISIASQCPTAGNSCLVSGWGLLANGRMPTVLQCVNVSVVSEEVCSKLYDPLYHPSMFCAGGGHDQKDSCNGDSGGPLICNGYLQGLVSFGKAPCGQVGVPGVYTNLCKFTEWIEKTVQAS
Series [3] addresses T2, KLK13 (Homo sapiens, UniProt Q9UKR3).
T2 sequence (Q9UKR3 17-277): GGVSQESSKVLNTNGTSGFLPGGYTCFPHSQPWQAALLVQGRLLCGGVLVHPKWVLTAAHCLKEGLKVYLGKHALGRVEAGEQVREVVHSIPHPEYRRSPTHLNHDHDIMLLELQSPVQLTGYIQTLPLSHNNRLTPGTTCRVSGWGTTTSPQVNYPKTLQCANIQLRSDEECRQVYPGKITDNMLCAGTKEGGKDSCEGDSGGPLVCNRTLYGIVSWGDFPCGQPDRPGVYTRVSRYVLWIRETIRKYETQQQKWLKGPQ
The note with it: Non Patent Literature 5.

Series [4] concerns the target T3, KLK8 (Homo sapiens, UniProt O60259).
T3 sequence (O60259 33-260): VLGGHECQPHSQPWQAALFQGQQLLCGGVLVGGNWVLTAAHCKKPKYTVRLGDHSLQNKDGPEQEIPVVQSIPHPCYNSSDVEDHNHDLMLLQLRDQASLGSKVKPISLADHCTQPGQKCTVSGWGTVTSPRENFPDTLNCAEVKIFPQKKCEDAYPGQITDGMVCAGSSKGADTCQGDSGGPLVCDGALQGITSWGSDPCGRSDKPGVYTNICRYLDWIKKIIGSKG
The note with it: Non Patent Literature 7.

As to “SPINK6: human serine protease of Kazal-type 6, natural KLK4 inhibitor of low specificity (QGGQVDCGEFQDPKVYCTRESNPHCGSDGQTYGNKCAFCKAIVKSGGKISLKHPGKC; UniProt Q6UWN8 24-80, looked up)”, the inhibition constant (Ki) in series [1] was 1 nM; in series [2], 27 nM; in series [3] it was 1 nM.

B1: SPINK9: human serine protease of Kazal-type 9, reported to have KLK8 inhibitory activity (protein, UniProt Q5DT21 20-86, looked up)
Serine protease inhibitor …: IECAKQTKQMVDCSHYKKLPPGQQRFCHHMYDPICGSDGKTYKNDCFFCSKVKKTDGTLKFVHFGKC
For B1, the KLK8 inhibitory activity result in series [4] is on record as “very weak”.

Broadly, the Ki is the dissociation constant of the complex between target and ligand, obtained from inhibition or displacement.
